Measurements from publication PMC12506513, “Conformational dynamics of the bacterial E3 ligase SspH1” (The Journal of Biological Chemistry, 2025).

T1: full-length SspH1 (1 to 700) (Salmonella, UniProt D0ZVG2 1-700)
T1 construct: also called FL SspH1; FL protein; source: E. coli BL21 Gold, purified (nickel-nitrilotriacetic acid resin, 3C protease, gel filtration)
T1 sequence: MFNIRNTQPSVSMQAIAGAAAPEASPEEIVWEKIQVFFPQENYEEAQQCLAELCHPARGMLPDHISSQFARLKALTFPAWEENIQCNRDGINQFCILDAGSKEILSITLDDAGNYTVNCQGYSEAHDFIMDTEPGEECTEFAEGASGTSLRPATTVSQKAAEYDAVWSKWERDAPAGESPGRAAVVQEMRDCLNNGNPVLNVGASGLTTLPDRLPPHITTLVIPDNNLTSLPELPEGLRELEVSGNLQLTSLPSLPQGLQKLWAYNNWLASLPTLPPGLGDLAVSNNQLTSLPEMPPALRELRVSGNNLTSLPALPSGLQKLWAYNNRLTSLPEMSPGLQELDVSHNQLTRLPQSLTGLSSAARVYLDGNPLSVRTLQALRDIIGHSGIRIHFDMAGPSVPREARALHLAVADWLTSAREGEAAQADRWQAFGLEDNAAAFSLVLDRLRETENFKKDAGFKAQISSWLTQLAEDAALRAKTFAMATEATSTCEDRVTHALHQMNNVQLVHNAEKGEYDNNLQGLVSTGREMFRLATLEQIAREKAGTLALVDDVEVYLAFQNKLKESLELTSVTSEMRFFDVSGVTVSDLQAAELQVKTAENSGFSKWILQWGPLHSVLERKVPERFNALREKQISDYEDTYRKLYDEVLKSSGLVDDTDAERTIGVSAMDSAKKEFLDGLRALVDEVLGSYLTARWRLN

B1: ΔNSspH1 (161-700) (domain or fragment)
chain: AEYDAVWSKWERDAPAGESPGRAAVVQEMRDCLNNGNPVLNVGASGLTTLPDRLPPHITTLVIPDNNLTSLPELPEGLRELEVSGNLQLTSLPSLPQGLQKLWAYNNWLASLPTLPPGLGDLAVSNNQLTSLPEMPPALRELRVSGNNLTSLPALPSGLQKLWAYNNRLTSLPEMSPGLQELDVSHNQLTRLPQSLTGLSSAARVYLDGNPLSVRTLQALRDIIGHSGIRIHFDMAGPSVPREARALHLAVADWLTSAREGEAAQADRWQAFGLEDNAAAFSLVLDRLRETENFKKDAGFKAQISSWLTQLAEDAALRAKTFAMATEATSTCEDRVTHALHQMNNVQLVHNAEKGEYDNNLQGLVSTGREMFRLATLEQIAREKAGTLALVDDVEVYLAFQNKLKESLELTSVTSEMRFFDVSGVTVSDLQAAELQVKTAENSGFSKWILQWGPLHSVLERKVPERFNALREKQISDYEDTYRKLYDEVLKSSGLVDDTDAERTIGVSAMDSAKKEFLDGLRALVDEVLGSYLTARWRLN
notes: also called WT SspH1; source: E. coli BL21 Gold, purified (nickel-nitrilotriacetic acid resin, 3C protease, gel filtration)

Experiments:
Details in all cases: both partners purified
15N-labeled ubiquitin = target: T2, 15N-labeled ubiquitin (UniProt P0CG48 1-76, 15N isotope-enriched); experiment: NMR titration; 15N-Ub titrated with SspH1 constructs; 1H-15N HSQC, 800 MHz; chemical shift perturbations and line broadening of Ub backbone amides
T2 construct: also called 15N-Ub; free Ub

[1] = target: T1, full-length SspH1 (1 to 700); experiment: SEC-MALS; SEC-MALLS of FL SspH1 and ΔNSspH1 alone and with the substrate PKN1; in the range of concentrations explored
ΔNSspH1 (161-700) = target: B1; experiment: as above

| Binder | binding result (15N-labeled ubiquitin) | stoichiometry N [1] | stoichiometry N (ΔNSspH1 (161-700)) |
| --- | --- | --- | --- |
| B1 | binds |  |  |
| E487R SspH1 (domain or fragment, also called E487R mutant; source: E. coli BL21 Gold, purified (nickel-nitrilotriacetic acid resin, 3C protease, gel filtration)) AEYDAVWSKWERDAPAGESPGRAAVVQEMRDCLNNGNPVLNVGASGLTTLPDRLPPHITTLVIPDNNLTSLPELPEGLRELEVSGNLQLTSLPSLPQGLQKLWAYNNWLASLPTLPPGLGDLAVSNNQLTSLPEMPPALRELRVSGNNLTSLPALPSGLQKLWAYNNRLTSLPEMSPGLQELDVSHNQLTRLPQSLTGLSSAARVYLDGNPLSVRTLQALRDIIGHSGIRIHFDMAGPSVPREARALHLAVADWLTSAREGEAAQADRWQAFGLEDNAAAFSLVLDRLRETENFKKDAGFKAQISSWLTQLAEDAALRAKTFAMATRATSTCEDRVTHALHQMNNVQLVHNAEKGEYDNNLQGLVSTGREMFRLATLEQIAREKAGTLALVDDVEVYLAFQNKLKESLELTSVTSEMRFFDVSGVTVSDLQAAELQVKTAENSGFSKWILQWGPLHSVLERKVPERFNALREKQISDYEDTYRKLYDEVLKSSGLVDDTDAERTIGVSAMDSAKKEFLDGLRALVDEVLGSYLTARWRLN | binds |  |  |
| SspH1 NEL domain (405 to 700) (domain or fragment, also called isolated NEL domain; source: E. coli BL21 Gold, purified (nickel-nitrilotriacetic acid resin, 3C protease, gel filtration)) RALHLAVADWLTSAREGEAAQADRWQAFGLEDNAAAFSLVLDRLRETENFKKDAGFKAQISSWLTQLAEDAALRAKTFAMATEATSTCEDRVTHALHQMNNVQLVHNAEKGEYDNNLQGLVSTGREMFRLATLEQIAREKAGTLALVDDVEVYLAFQNKLKESLELTSVTSEMRFFDVSGVTVSDLQAAELQVKTAENSGFSKWILQWGPLHSVLERKVPERFNALREKQISDYEDTYRKLYDEVLKSSGLVDDTDAERTIGVSAMDSAKKEFLDGLRALVDEVLGSYLTARWRLN | binds |  |  |
| PKN1 HR1b domain (residues 122-199) (domain or fragment, also called HR1b PKN1; substrate PKN1; source: E. coli BL21 Gold, purified (nickel-nitrilotriacetic acid resin, 3C protease, gel filtration)) not shown |  | 1 | 1 |
